The data set deals with the molecule itself. The data set is described as follows: SEC; purified hSIDT1-GFP on Superose 6 Increase 10/300 GL at 0.5 ml/min, intrinsic tryptophan fluorescence; column in 0.15 mM LMNG, 25 mM Tris-HCl pH 7.5, 200 mM NaCl; molecular weight read from a standard plot. (Size exclusion chromatography separates by hydrodynamic size, large species first.)

We go through one protein from paper PMC11208740, “Structure of the human systemic RNAi defective transmembrane protein 1 (hSIDT1) reveals the conformational flexibility of its lipid binding domain” (Life Science Alliance, 2024).

As usually defined, the stoichiometry N is the number of molecules, sites or subunits per partner or assembly.

B1: full-length human systemic RNAi defective transmembrane family member 1 (hSIDT1), C-terminal GFP-Strep-tag-II fusion (natural protein, UniProt Q9NXL6 20-827, looked up)
chain: ASPGHPAKSPRQPPAPRRDPFDAARGADFDHVYSGVVNLSTENIYSFNYTSQPDQVTAVRVYVNSSSENLNYPVLVVVRQQKEVLSWQVPLLFQGLYQRSYNYQEVSRTLCPSEATNETGPLQQLIFVDVASMAPLGAQYKLLVTKLKHFQLRTNVAFHFTASPSQPQYFLYKFPKDVDSVIIKVVSEMAYPCSVVSVQNIMCPVYDLDHNVEFNGVYQSMTKKAAITLQKKDFPGEQFFVVFVIKPEDYACGGSFFIQEKENQTWNLQRKKNLEVTIVPSIKESVYVKSSLFSVFIFLSFYLGCLLVGFVHYLRFQRKSIDGSFGSNDGSGNMVASHPIAASTPEGSNYGTIDESSSSPGRQMSSSDGGPPGQSDTDSSVEESDFDTMPDIESDKNIIRTKMFLYLSDLSRKDRRIVSKKYKIYFWNIITIAVFYALPVIQLVITYQTVVNVTGNQDICYYNFLCAHPLGVLSAFNNILSNLGHVLLGFLFLLIVLRRDILHRRALEAKDIFAVEYGIPKHFGLFYAMGIALMMEGVLSACYHVCPNYSNFQFDTSFMYMIAGLCMLKLYQTRHPDINASAYSAYASFAVVIMVTVLGVVFGKNDVWFWVIFSAIHVLASLALSTQIYYMGRFKIDLGIFRRAAMVFYTDCIQQCSRPLYMDRMVLLVVGNLVNWSFALFGLIYRPRDFASYMLGIFICNLLLYLAFYIIMKLRSSEKVLPVPLFCIVATAVMWAAALYFFFQNLSSWEGTPAESREKNRECILLDFFDDHDIWHFLSATALFFSFLVLLTLDDDLDVVRRDQIPVF
notes: human systemic RNAi defective transmembrane family member 1 (hSIDT1), full length, codon-optimized gene synthesized by GenScript, cloned into pEG BacMam; Made in cells that lack N-acetylglucosaminyltransferase I, so the protein lacks complex N-glycosylation (predicted sites N57, N67, N83, N136, N282); No cleavage of GFP-Strep-tag-II is described; Not modelled in the structure: the first 40 …
For B1, the “stoichiometry N” value is 2.
